In publication PMC11339409 one finds stoichiometry N data, which are given here for two substances.

For experiment [1], the target named is LUJV glycoprotein-2 (GP2) (Lujo virus (LUJV)). As to the kind of experiment: cryo-EM structure.
Experiment [2] has as its target LUJV glycoprotein-1 (GP1) (Lujo virus (LUJV)). As to the kind of experiment: cryo-EM structure.

As usually defined, the stoichiometry N is the number of molecules, sites or subunits per partner or assembly. In turn, “LUJV glycoprotein-2 (GP2) (domain or fragment)” returned a stoichiometry N in experiment [1] of 3.
With “LUJV glycoprotein-1 (GP1) (domain or fragment)”, in experiment [2], the stoichiometry N amounted to 3.
